Measured values as given in the nanobody polyreactivity screen of Harvey et al. (2022).

Assay: yeast display, Sf9 membrane polyspecificity reagent, FACS + sequencing; frameworks hold sequencing errors
How it was run: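 Using colony PCR, genes from sorted yeast display clones were amplified, then sequenced on MiSeq at 2 × 250 and filtered by CDR length. The clones had been stained with 10% biotinylated, detergent-solubilized Sf9 membrane reagent for 1 hour at 4 °C and sorted by FACS into low and high (top ~1%) gates on anti-HA and streptavidin fluorescence. Polyreactivity labels come from the gate of origin.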

Row | Sequence | polyreactivity (PSR sort gate)
1 | QVQLVESGGGLVQAGGSLRLSCAASGRTFPGYAMGWYRQAPGKERELVATITFSDGSTYYADSVKGRFTISRDNAKNSVYLQMNSLKPEDTAVYYCNARRSYFLRYGVNYWGQGTQVTVSS | low polyreactivity
2 | QVQLVESGGGLVQAGGSLRLSCAASGRTFPGYAMGWYRQATGKERELVAGISYRGGSTYYADSVKGRITISRDTAKNTVYFQINSLKPVDTAVYYCARDYSRHKGDYWGQGTQVTVSS | low polyreactivity
3 | QVQLVESGGGLVQAGGSLRLSCAASGRTFPHYAMGWYRQAPGKVRELVAAISSRGGSTYYADSVKGRFTISRDNVKNTVYLQMNSLKPEDTAVYYCAATVGLYRSREYGYWGQGTQVTVSS | low polyreactivity
4 | QVQLVESGGGLVQAGGSLRLSCAASGRTFPNYAMGWYRQAPGKERELVAAITRGVRTHYADSVKGRFTISRDNAKNTVYLQLNSLKQEDTAVYYCARSYRSDGSRFGYWGQGTQVTVSS | low polyreactivity
5 | QVQLVESGGGLVQAGGSLRLSCAASGRTFPPYAMGWYRQAPRKESELVAAISGSGASTYYADSVKGRFTISRDNAKNTVYLQMNSLKPEDTAVYYCAARRGSGKFGKYRGVDYWGQGTQVTVSS | high polyreactivity
6 | QVQLVESGGGLVQAGGSLRLSCAASGRTFPQNAMGWYRQAPGKERELVAAISRSGGRTYYADSVKGRFTISRDNAKNTVYLQMNSLKPEDTAVYYCNTDPRYPRYDYSGQGTQVTVSS | high polyreactivity
7 | QVQLVESGGGLVQAGGSLRLSCAASGRTFPRYAMGWYRQARGKEREMVAAISGTGGSTYYADSVKGRFTISRDNAKNTFYLQMNSLKPEDTAVYYCAAAFRDGFTRRYGYWGQGTQVTVSS | high polyreactivity
8 | QVQLVESGGGLVQAGGSLRLSCAASGRTFPRYGMGWYRQAPVKERELVATIRTGGRTNYADSVKGRFTISRDNAKNTVYVLMNSQKPEDTAVYYCATDSSKHPYSPTLLKFDYWGQGTQVTVSS | low polyreactivity
9 | QVQLVESGGGLVQAGGSLRLSCAASGRTFPRYTMGRYRQAPRKERELVAASATGGSTNYADSVKGRFTISRDNAKNTVYLHMNSLKPEDTAVYYCAARPYSNRYVLGVYYWGKGTQVTVSS | high polyreactivity
10 | QVQLVESGGGLVQAGGSLRLSCAASGRTFPRYVMGWYRQAPGKERDLVAAIRRSGGSTYYADSVKGRFTISRDNAKNTVYLQMNSLKPDDTAVYYCNRVVYTYISTGSRHGRYYYWGQGTQVTVSS | high polyreactivity
11 | QVQLVESGGGLVQAGGSLRLSCAASGRTFPSYTMGWYRQAPGKERELVAAITWTGGSTYYADSVKGRFTISRDNAKNSVYLQMNCLKPEDTAVYYCADDDYWGQGTQVTVSS | low polyreactivity
12 | QVQLVESGGGLVQAGGSLRLSCAASGRTFPTYTMGWYRQAPGQERELVAAITRGGSTKYADSVKGRFTISRDNAKNTVYLQMNSLKPEDTAVYYCAAVYRYRHSFAYYRHEMDYWGQGTQVTVSS | low polyreactivity
13 | QVQLVESGGGLVQAGGSLRLSCAASGRTFPVNGMGWYRQAPGKERELVAAITGGGSTNYADSVKGRFTITRDNAKNTVYLQMNSLKPEDTAVYYCAAGSYSRYLYSLYFDFDYWGQGTQVTVSS | low polyreactivity
14 | QVQLVESGGGLVQAGGSLRLSCAASGRTFPVYAMGRYRPAPGKERELVAAISWSGGTTYYADSVPGRFTISRDNAKNTVYLQKHSLKPEDTAVYFCAARFGVRRRYDYWGQGTQVTVSS | high polyreactivity
15 | QVQLVESGGGLVQAGGSLRLSCAASGRTFPVYAMGWYRQAPGKERELVAAIRARSVRTYYADSVKGRFTISRDNAKNTVYLQMNSLKPEDTAVYYCAAYYLNPGMDYWGQGTQVTVSS | high polyreactivity
16 | QVQLVESGGGLVQAGGSLRLSCAASGRTFPVYSMGWYRQAPGKERELVDVITTRVTSTYYADSVKGRFTISRDNAKNSVYLQMNSLKPEDTAVYYCNARTAYTGNYGPPKGGYWGQGTQVTVSS | high polyreactivity
17 | QVQLVESGGGLVQAGGSLRLSCAASGRTFPWKVMGWYRQPPGKERELVAAITRSGGSTYYADSVKGRFTISRDNAKNTVYLQMNSLKQEDTAVYYCAKRGYTSSRRWIYDYWGQGTQVTVSS | high polyreactivity
18 | QVQLVESGGGLVQAGGSLRLSCAASGRTFPWYTMGWYRQAPGKERELVAAISWSGGSTFYADSVKGRFTISRDNAKNTVYLQMNSLKPEDTAVYYCAARSRPTVQRGYAYGYWGQGTQVTVSS | low polyreactivity
19 | QVQLVESGGGLVQAGGSLRLSCAASGRTFPYNAMGWSRQAPGKERELVAVISSGGGRTYYADSVKGRFTISRDNAKNTVYLQMNSLKPEDTAVYYCNKGGYAIRYDYYWGQGTQVTVSS | high polyreactivity
20 | QVQLVESGGGLVQAGGSLRLSCAASGRTFPYNAMGWYRQAPGKEMELVAAITKSAGRTYYAYSVKGRFTISRDNAKNTVYLQMNSLKPEDTAVYYCNTVTVAYGYTRLYAQYYYWGQGTQVTVSS | high polyreactivity
21 | QVQLVESGGGLVQAGGSLRLSCAASGRTFPYNAMGWYRQAPGKERELVAAISSGGSTNYADSVKGRFTITRDNAKKTVYLQRNSLKPEDTAVYYCAVTGWPRYTWYSYGYWGQGTQVTVSS | low polyreactivity
22 | QVQLVESGGGLVQAGGSLRLSCAASGRTFPYNAMGWYRQAPGKERELVAVISSSGGSTYYADSVKGRFTISRDNAKNTVYLQMNSLKPEDTAVYYCNTRPYYYRRPGYRYSGYDYWGQGTQVTVSS | high polyreactivity

Row | Sequence | polyreactivity (PSR sort gate)
23 | QVQLVESGGGLVQAGGSLRLSCAASGRTFPYNVMGWYRQAPRKERELVAAITYDGGNTYYADSVKGRFTISRDNAKNTVYLQMNSLKPEDTAVYYCARPLTYYDEFDSWGQGTQVTVSS | low polyreactivity
24 | QVQLVESGGGLVQAGGSLRLSCAASGRTFPYYAMGWYRQAPGKEMELVAAISSSGGRTYYADSVKGRFTISRDNAKNTVYLQMNSLKPEDTAVYYCNAESTYYPSGEDYWGQGTQVTVSS | low polyreactivity
25 | QVQLVESGGGLVQAGGSLRLSCAASGRTFPYYAMGWYRQAPGKEREFVAGISRTGGSTYYADSVKGRFTISRDNAKNTVYLQMNSLKPEDTAVYYCNAPYILTQQGGRRYDYWGQGTQVTVSS | high polyreactivity
26 | QVQLVESGGGLVQAGGSLRLSCAASGRTFPYYAMGWYRQAPGKETELVASISYRGGNTYYADSVKGRFTISRDNAKNTVYLQMNSQKPEDTAVYYCAKTGRYSARDDYWGQGTQVTVSS | high polyreactivity
27 | QVQLVESGGGLVQAGGSLRLSCAASGRTFPYYDKGWYRQAPGKERELVATISWSGGTTYADSVKGRFTISRDNAKNTVYLQMNSLKPEDTAVYFCAAVSYVYRYYWGQGTQVTVSS | low polyreactivity
28 | QVQLVESGGGLVQAGGSLRLSCAASGRTFQDNAMGWSRQEPGKERELVAAISWRGGSTNYADSVKGRFTISRDNAKNTVFLQLNSLKPEDTAVYYCNRDPRKYGKLDYWGQGTQVTVSS | low polyreactivity
29 | QVQLVESGGGLVQAGGSLRLSCAASGRTFQDNAMGWYRQAPGKERELVAAMSWRGGSTNYADSVKGRFTISRDNAKNTVYLQMKSLKPEDTAVYYCYRDQRKYGKLDYWVQGTQVTVSS | low polyreactivity
30 | QVQLVESGGGLVQAGGSLRLSCAASGRTFQFYAMGWYRQAPGKERELVAAITYSGDSTYYADSVKGRFTISRDNAKNTVYLQMNSLKPEDTAVYYCAAGVWFYWYEYDYWGQGTQVTVSS | high polyreactivity
31 | QVQLVESGGGLVQAGGSLRLSCAASGRTFQFYVMGWYRQAPGKERELVASIRSGGSTNYADSVKGRFTISRDNAKNTVYLQMNSLKPEDTAVYYFAARVASPYYRYDFWGQGTQVTVSS | low polyreactivity
32 | QVQLVESGGGLVQAGGSLRLSCAASGRTFQKNTMGWYRQPPGKERELVAAIDYSATTTYYADSVKGRFTSSRDTAKNTVYLQMNSLKPEDTAVYYCAARWSYPRWEFDYWGQGTQVTVTS | high polyreactivity
33 | QVQLVESGGGLVQAGGSLRLSCAASGRTFQLNAMGWYRQAPGKERELVAAISTRGGSTYYADSVKGRFTISRDNAKNTVYLQMNRLKPEDTAVYYCAAVTKTLYRSYFLMYYWGQGTQVTVSS | high polyreactivity
34 | QVQLVESGGGLVQAGGSLRLSCAASGRTFQLNAMGWYRQGPGNERELVAAISTRGGSTYYADSVKGRFTISRDNAKNTVYLQMNSLKPEDTAVYYCAKDPSFTRGYKEGGGYDYWGQGTQVTVSS | high polyreactivity
35 | QVQLVESGGGLVQAGGSLRLSCAASGRTFQLYAMGWYRQAPGKEMELVAAISTRGGSTYYADSVKGRFTISRDNAKNTVYLLMNSLKPEDTAVYYCAKDPSFTRGYKEGGGYDYWGQGTQVNVSS | high polyreactivity
36 | QVQLVESGGGLVQAGGSLRLSCAASGRTFQRYTMGWYRQAPGKERELVASISRSGGSTYYADSVKGRFTISRDNAKNTVYLQMNSLKPEDTAVYYCATRSLFWNRNHYRVSSPVLYDYWGQGTQVTVSS | high polyreactivity
37 | QVQLVESGGGLVQAGGSLRLSCAASGRTFQSYAMGWYRQEPGKERELVAAITITGGRTYYADSVKGRFTISRDNAKNTVYLQMNSLKPEDTAVYYCAAEEYSHYTLGYVYWGQGTQVTVSS | low polyreactivity
38 | QVQLVESGGGLVQAGGSLRLSCAASGRTFQTNAMGWYRQAPGKERELVAAISSTGGSTYYADSVKGRFTISRDNAKNTVYLQMNRLKPEDTAVYYCNAGRTYRYDYWGQGTQVTVSS | high polyreactivity
39 | QVQLVESGGGLVQAGGSLRLSCAASGRTFQTNAMGWYRQAPGKERELVAAISWSGGRTYYADSVKGRFTISRDNAKNTVYLQMNSLKPEDTAVYYCAARQWYRYKVRFDYCGQGTQVTVSS | high polyreactivity
40 | QVQLVESGGGLVQAGGSLRLSCAASGRTFQVNAMGWYRQAPGKERELVAGITQRAGSTYYADSVKGRFTISRDNAKNTVYLQMNSLKPEDTAVYYCAAQDVHLWYENYYWGQGTQVTVSS | low polyreactivity
41 | QVQLVESGGGLVQAGGSLRLSCAASGRTFQWYAMGWYRQAPGKERELVAAIRYSAGSTYYADSVKGRFTISRDHAKNTVYLQMNSLKREDTAVYYCAAEPYPYGPYYFLWLRYDYWGQGTQVTVSS | low polyreactivity
42 | QVQLVESGGGLVQAGGSLRLSCAASGRTFQWYAMGWYRQAPGKERELVAAITSGGNTYYADSVKGRFTISRDNAKNTVYLQMNSLKPEDTAVYYCFLFYSRSMGYWGQGTQVTVSS | high polyreactivity
43 | QVQLVESGGGLVQAGGSLRLSCAASGRTFQWYAMGWYRQAPGKERELVAGISFSGGSTYYADSVKGRFTISRDNAKNTVYLQMNSLKPEDTAVYYCAARRFSPGSSGHGYWGQGTQLTVSS | high polyreactivity
